Experimental data published in PMC6508825, “Rice plants have three homologs of glutathione synthetase genes, one of which, OsGS2, codes for hydroxymethyl‐glutathione synthetase” (Plant Direct, 2019).

Key:
Settings in all cases: 1 mmol/L gamma-glutamylcysteine, 2 mmol/L ATP, 20 mmol/L MgCl2, 50 mmol/L KCl, 1 mmol/L DTT, Tris-HCl pH 8.0, 30 °C, apparent, 0.2-10 mmol/L amino acid
[1] = substrate: NCC(=O)O; experiment: HPLC with fluorescence detection of monobromobimane-derivatized thiol peptide product, Michaelis-Menten fit; type: biochemical, Oryza sativa
Text: HPLC with fluorescence detection of monobromobimane-derivatized thiol peptide product, Michaelis-Menten fit on MBP-OsGS3

purified protein = substrate: N[C@@H](CO)C(=O)O; experiment: purified protein
[2] = substrate: NCC(=O)O; experiment: HPLC with fluorescence detection of monobromobimane-derivatized thiol peptide product, Michaelis-Menten fit; type: biochemical, Oryza sativa; remark: listed apart in the source
Text: HPLC with fluorescence detection of monobromobimane-derivatized thiol peptide product, Michaelis-Menten fit on MBP-OsGS2

[3] = substrate: NCC(=O)O; experiment: as above; type: biochemical, Oryza sativa; remark: listed apart in the source
Text: HPLC with fluorescence detection of monobromobimane-derivatized thiol peptide product, Michaelis-Menten fit on MBP-OsGS1

B1: MBP-OsGS3 (Oryza sativa Japonica Group) (protein)
chain: MSAAAEGRPPAAAAAGEMVREATAWCALHGLVVGDRADPRSGTVPGVGLVHAPFSLLPTHLPESHWRQACELAPIFNELVDRVSLDGDFLQDSLSKTKQVDDFTSRLLEIHRKMMEINKEENIRLGLHRSDYMLDSETNSLLQIELNTISASFPGLGSLVSELHRTLIDQYGHLFCLDSKRVPGNEASSQFAKALARAWDEFNVDSAVIMMIVQPEERNMYDQYWLAKHLKESHGITTIRKTLSEVEAEGHVLPDGTLVIDGKTVSVVYFRAGYTPNDYPSEAEWAARLLLEQSSAVKCPSISYHLVGTKKIQQELARPNVLERFLENKEEITKIRKCFAGLWSLDDEEIVKSAIQKPELFVLKPQREGGGNNIYGIDVRETLIRLQKEGGDALAAYILMQRIFPKASLSNLVRGGVCHEALTISELGIYGAYLRNNDKVVMNEQSGYLMRTKVSSSDEGGVAAGFAVLDSLYLTDKAM
notes: MBP kept
- Km [1]: 408 ± 5 µM
- Vmax [1]: 6.6 µmol/min/mg

B2: MBP-OsGS2 (Oryza sativa Japonica Group) (protein)
chain: MAAAAARSGAHPPSFASSLGRCRVLPVVVVRRPGGAARPSPLLAPARCAAAVGTAAPKVEGGGRRSSEQGQLAVAPARLVDELVEEALVWSSQHGLVVGDKNHPRSGKAPGVGLLHAPFALLPMSFSKVYWDQAVELAPLFNELVDRVSLDGDFLQETLARTKEVDSFTGRLLDIHAKMMKLNKKEDVRLGLTRSDYMIDGATDQLLQVELNTISTSSNGLACGVCELHRNLIRQHERELGLDPESVVGNTAIAQHAEALAGAWAEFNNQSSVVLVVVQPEERYMYDQYWITVALREMYGVTTIRKTMAAIDAEGELRPDGTLTIDGLPVAVVYFRAGYTPNDYPSEAEWRARLLIECSSAIKCPSIAHHLVGTKKIQQELAKENVLERFLDNKADIEKVRKCFAGLWSLENDSIVMSAIESPELFVLKPQREGGGNNIYGDNLRETLISLKKDGSNELAAYILMQRIFPPASLCYLVRDGTCIRENAVSEFGIFGAYLRNKDRVIINDQCGYLMRTKAASLNEGGVVAGYAFLNSVFLT
notes: full-length ORF, MBP fusion (pMAL-c5X), expressed in E. coli NEB Express, amylose resin purified; MBP kept
- Km (purified protein): 2640 ± 50 µM
- Vmax (purified protein): 0.524 µmol/min/mg
- Km [2]: 19300 ± 1100 µM
- Vmax [2]: 0.459 µmol/min/mg

B3: MBP-OsGS1 (Oryza sativa Japonica Group) (protein)
chain: MSSYVTTPHHHHHHGCCSGSRRLQAPAPPARPRLVVAAAARHVALPPRRAVASRAMSAEAPLGVAPAAAEEEMAAVVDEMAEEAAVWCAVHGLVVGDRAEPRSGTIPGVGLVHAPFALLPTRFPASFWKQARELAPIFNDLVDRVSLDGEFLQDSLSRTRQVDDFTSRLLDIHAKMMEVNKEEDIRLGLHRSDYMLDSGTNSLLQIELNTISSSFPGLSSLVSELHRTLLNRHGKVLGLDSKRIPQNWAATQFAEALSMAWTEFNNKSAVIMMVVQPEERNMYDQYWLINHLKESHGVKTIRKTLAQVEAEGQVLPDGTLVVDGQTVSVVYFRAGYSPNDYPSEAEWRARLLMEQSSAIKCPSISYHLVGTKKIQQELAKPNILERFLNNKEDIAKLRKCFAGLWSLDNEEIVKTAIEKPDLFVLKPQREGGGNNIYGYDLRETLVRLQKEQGEALAAYILMQRIFPRASLTHLVQGGVCFEDLTISELGIFGAYLRNKDKVVLNNQCGYLMRTKVSSSNEGGVAAGFAVLDSILLTDEW
notes: as for B2
- Km [3]: 1280 ± 100 µM
- Vmax [3]: 0.759 µmol/min/mg
